4 molecules from patent US20100143368A1 (Bristol-Myers Squibb, published 2010) can be followed below.

Residue numbers refer to the chain shown, from its start. Names may count otherwise.

Broadly, the Kd is the free concentration of one partner at which half of the binding sites on the other are occupied at equilibrium, for simple one-to-one binding. What is called EC50 (read off the curve) is the midpoint of the concentration-response curve. Low values mean greater potency, high ones weaker potency.

The target of test [1] is T1, recombinant human CD22 extracellular domain with C-terminal hexahistidine tag (human, UniProt P20273 20-687).
T1 construct: The whole entry is named here; also called CD22 ECD; CD22β extracellular domain
T1 sequence: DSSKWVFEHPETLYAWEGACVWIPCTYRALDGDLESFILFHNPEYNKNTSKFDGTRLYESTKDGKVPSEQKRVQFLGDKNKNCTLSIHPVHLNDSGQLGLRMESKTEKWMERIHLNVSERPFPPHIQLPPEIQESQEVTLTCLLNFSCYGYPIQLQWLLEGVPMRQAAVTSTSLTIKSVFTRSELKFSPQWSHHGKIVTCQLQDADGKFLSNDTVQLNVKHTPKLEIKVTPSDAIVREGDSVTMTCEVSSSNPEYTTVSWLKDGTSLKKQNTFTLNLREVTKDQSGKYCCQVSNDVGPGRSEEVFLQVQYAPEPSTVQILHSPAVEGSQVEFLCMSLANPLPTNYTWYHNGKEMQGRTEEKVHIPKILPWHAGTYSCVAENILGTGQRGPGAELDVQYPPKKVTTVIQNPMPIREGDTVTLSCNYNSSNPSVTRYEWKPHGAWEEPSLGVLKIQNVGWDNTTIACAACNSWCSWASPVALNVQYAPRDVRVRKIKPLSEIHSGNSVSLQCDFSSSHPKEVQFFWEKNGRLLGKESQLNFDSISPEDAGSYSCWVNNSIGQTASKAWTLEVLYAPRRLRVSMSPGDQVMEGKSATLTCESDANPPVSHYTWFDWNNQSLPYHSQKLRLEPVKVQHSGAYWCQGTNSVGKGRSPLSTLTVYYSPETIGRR
Description: SPR (BIAcore 3000); CD22 ECD-His captured by anti-His mAb on CM5 chip, antibody injected at 20 µg/mL. As to the method:
For determination of antibody affinity (KD), experiments were performed in which the CD22 antigen was captured on a BIAcore chip using an antibody to the His tag present on the antigen. Anti-His monoclonal antibody ab15149 (Abcam, Stock conc.0.5 mg/mL) was coated on a CM5 chip at high density (3500RUs), as recommended by the manufacturer. CD22 ECD (6.6 μg/mL) was captured on this surface for 60 sec at a flow-rate of 6 μL/min. A single concentration (20 μg/mL) of anti-CD22 purified mAbs was injected over the captured antigen with an association time of 5 minutes and a dissociation time of 8 minutes, at a flow rate of […]. The chip surface was regenerated after each cycle with 10 μL of 25 mM NaOH. Isotype controls were run on the chip and the data used to subtract non-specific binding. All experiments were carried out on a BIAcore 3000 surface plasmon resonance instrument, using BIAcore Control software v 3.2. Data analysis was carried out using BiaEvaluation v. 3.2 software.
Fourteen of the selected anti-CD22 antibodies were tested in the affinity experiment.

In test [2] the target is T2, full-length human CD22 expressed on the cell surface (human, UniProt P20273 20-847).
T2 construct: One molecule is used both for CHO transfectants with the full-length CD22 cDNA and for endogenous CD22 on Raji/Daudi cells; also called CHO-CD22; CHO cells transfected with full-length CD22
T2 sequence (looked up): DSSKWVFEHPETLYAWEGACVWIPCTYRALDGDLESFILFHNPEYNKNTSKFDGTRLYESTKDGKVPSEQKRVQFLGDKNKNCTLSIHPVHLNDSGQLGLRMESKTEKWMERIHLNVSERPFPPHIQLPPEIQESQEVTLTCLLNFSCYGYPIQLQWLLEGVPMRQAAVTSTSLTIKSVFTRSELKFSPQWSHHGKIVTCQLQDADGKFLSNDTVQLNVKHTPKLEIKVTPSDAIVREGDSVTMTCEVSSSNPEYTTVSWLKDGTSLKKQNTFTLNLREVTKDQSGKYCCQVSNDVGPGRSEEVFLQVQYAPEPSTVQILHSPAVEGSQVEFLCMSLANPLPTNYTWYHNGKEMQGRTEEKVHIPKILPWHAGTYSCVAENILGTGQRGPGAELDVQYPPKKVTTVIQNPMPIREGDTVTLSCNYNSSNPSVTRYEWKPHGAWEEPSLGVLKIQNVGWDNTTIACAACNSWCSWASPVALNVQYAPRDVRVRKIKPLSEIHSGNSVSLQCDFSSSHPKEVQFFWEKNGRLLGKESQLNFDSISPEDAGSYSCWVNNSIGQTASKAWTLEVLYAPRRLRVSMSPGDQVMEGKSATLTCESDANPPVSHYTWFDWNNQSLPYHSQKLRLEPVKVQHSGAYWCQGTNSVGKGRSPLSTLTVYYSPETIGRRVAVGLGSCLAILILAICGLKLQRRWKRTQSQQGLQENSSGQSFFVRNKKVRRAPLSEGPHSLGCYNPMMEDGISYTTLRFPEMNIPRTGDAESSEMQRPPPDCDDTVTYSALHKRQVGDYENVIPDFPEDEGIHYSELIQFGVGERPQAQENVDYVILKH
The test can be described thus: flow cytometry (FACS Array) on CHO cells transfected with full-length CD22, goat anti-human IgG-PE. On the technique in general: In flow cytometry, cells or beads pass a laser one at a time.

B1: anti-CD22 human monoclonal antibody 12C5 (antibody, IgG1, V domains shown)
VH: QVQLVQSGSELKKPGASVKVSCKASGYTFTSYAMNWVRQAPGQGLEWMGWINTNTGNPTYAQGFTGRFVFSLDTSVSTAYLQISSLKAEDTAVYYCARLFYYYFGMDVWGQGTTVTVSS
VL: QSALTQPASVSGSPGQSITISCTGTSSDVGSYNLVSWYQLHPGKAPKLMIYEVSKRPSGVSNRFSGSRSGNTASLTISGLQAEDEADYYCCSYANSSTLVFGGGTKLTVL
notes: Hybridoma-derived
Turning to B1, the Kd in test [1] came to 0.23 nM.

B2: recombinant human anti-CD22 monoclonal antibody CD22.1 (antibody, human IgG1, V domains shown)
VH: QVQLQQWGAGLLKPSETLSLTCAVYGRSFSSYYWSWIRQPPGKGLEWIGDINHSGSTNYNPSLKSRVTISVDTSKNQFSLKLSSVTAADTAVYYCAGTFYDILTGYYPLGYWGPGTLVTVSS
VL: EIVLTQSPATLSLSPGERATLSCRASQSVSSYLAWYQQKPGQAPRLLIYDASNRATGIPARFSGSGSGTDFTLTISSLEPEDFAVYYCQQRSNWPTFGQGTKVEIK
notes: also called 19A3 expressed in CHO cells (clone 8G9)
For B2, the “EC50 (read off the curve)” value in test [2] was ~0.3 µg/mL.

B3: anti-CD22 human monoclonal antibody 19A3 (antibody, IgG1, V domains shown)
VH: B2 VH
VL: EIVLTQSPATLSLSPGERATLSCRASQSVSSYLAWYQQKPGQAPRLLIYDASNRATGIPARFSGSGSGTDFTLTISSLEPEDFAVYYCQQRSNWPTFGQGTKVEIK
notes: Hybridoma-derived; also called parental antibody 19A3
On to B3, for which the equilibrium dissociation constant (Kd) in test [1] stood at 0.15 nM.

B4: recombinant human anti-CD22 monoclonal antibody CD22.2 (antibody, human IgG1, V domains shown)
VH: B2 VH with N52Q
VL: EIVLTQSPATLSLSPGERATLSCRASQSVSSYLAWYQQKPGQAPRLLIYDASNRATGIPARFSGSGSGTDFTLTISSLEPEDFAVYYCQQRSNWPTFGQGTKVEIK
notes: Variant of 19A3 with N57Q, which removes the N-glycosylation site in VH CDR2; also called 19A3 VH N57Q variant (clone 17E11)
As to B4, the “EC50 (read off the curve)” value in test [2] is ~0.3 µg/mL.
